Results reported in the domain aggregation screens of Martell et al. (2025).

Experiment: soluble fraction after stress (log2 fold change); higher = more stays soluble; pooled small domains, quantitative proteomics
Conditions: stress: pH 4
How it was run: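 Values are on a log2 scale, where higher means more of the domain stayed soluble after pH 4 stress. They are fold changes in the soluble amount of each domain from pooled custom libraries, measured by high-throughput quantitative proteomics. The fold change is taken to reflect aggregation propensity.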

Going from “HMGPIITKTYNLSYATARDVNDIIKSKKSARGDIVIDTRTNSLIVSDVQEKIDLIDEIVATL” to “HMGPLSDRSVADWLLRLGLADTANNRLLLQVMHAAGLPLERTAVRAMRETAAGRPEGTDAREWLQAAAAAQ”, the “soluble fraction (log2)” value rises from -1.37 to -0.326.

Going from “HMGPNSVPDLRGKSLRQAMKMVNDLELKAIFEGEGIVVGQVPAPGKPVPETKILKITLSLEPY” to “HMGPPAVGSKLQDARKAQQLSLDELSKRAGVSKSMLSEVERNQANPTVGVLWRLATALGISLTDLLG”, the “soluble fraction (log2)” value falls from 0.0736 to -0.549.

Compared with “HMGPPLISLDDGLAKGFGVGVGDTLTINILGRRITATIASLREIDWQSLRFDFAVVLSPGVLEGA”, “HMGPRKAGSEATRQKILDAAEILFAERGFHSVSVRDITTEAGVDVALINYHFGSKQLLFETVFMRR” is lower in “soluble fraction (log2)” value: 0.063 for the first, -0.472 for the second.

“HMGPRPLPAEFTHPSLRALLALGTTRGGVTSADVKTALEAASVPAGRRAAVLRALDDNGIEVHTEP” and “HMGPSEVTLDNFVGKNYTDVVNDTSYQFTFKKEEKSDQTHAAGIIIAQSPKKGIKVKSNSTVTLTVSTG” are within 0.2 log units of each other in “soluble fraction (log2)” value: 0.107 for the first, 0.216 for the second.

“HMGPVDFYQMFISELQHLAEKPVTVDALIESTQLHKSQLTEWLKRAVDDGVVKKLNRPARFQVKNK” and “HMGPVRDLGLLESAAHRPTTALWGRDVYATIEKKAAALLDSLVRDRPLADGNKRLGWLAALV” are within 0.2 log units of each other in “soluble fraction (log2)” value: 0.136 for the first, 0.0116 for the second.

First: HMGPYGAGSAAPAEDGSGPEGWTVKGNAKSMLYHTEGSPYYGRTNADVWFRDEESAEAAGFRRWDRK
Second: HMGQAELPYSEFLREVNNGQVKSVIIEGSEITGFYKTSGTSFNVIAPDDPKLVERLMAQGVEVRAQPA
The “soluble fraction (log2)” value of the first is lower: 0.033 for the first, 0.239 for the second.

First: HMGQDLEAFLLKAVGQLDQGDGVTLDALLKVAVSNGGFVREVAEAKLDDMLDAGTLDEPRFGWFRVGAT
Second: HMGQDLSYYIKIVQNQQPVDPLTGEPKVLDYGEVIRQAQILQMLDTGDLDRDKAIGQLSMKDAL
The “soluble fraction (log2)” value of the first is lower: -1.68 for the first, -0.26 for the second.

Compared with “HMGQELRFVIQDHEAGIRLDHYLTQQVEGYSRSHLRKLMDQGLITVDGSYRKAGYRLNVGDVIHVVIPPTR”, “HMGQELTPVERTALDIAARDGKVSTRILAQEAGIGLRTASKTLAALAERGLLTWHGTSRRDPQQHYTS” is higher in “soluble fraction (log2)” value: -0.0619 for the first, 0.154 for the second.

Compared with “HMGQISDESVLKEMVVQLIADNPKEVASYLGGKETLLQWFMGQVARATKGKADPQAVKQLLLDEFEKLK”, “HMGQKETIVDLLKTNGTMTQLALAEAIYGDKNHGPNIYSVLMGRVNSGAVLRTGSQPAYYSLSG” is higher in “soluble fraction (log2)” value: -0.504 for the first, 0.22 for the second.

Compared with “HMGQKMLTIELQEKVNKMPDNLASYDLKLSADGMSLIYKYSLKSERTGITALLQELKNAGLVMRDLKTEQ”, “HMGQLSDREALTVLAREALVELPRAAGDYRNGRTAALQSLVGRVMRKTAGRGNPALLQEIFRSLL” is higher in “soluble fraction (log2)” value: -0.302 for the first, 0.00453 for the second.

Going from “HMGQLVVHQIKGEASRLDKFLVVNIPKYSRSVWREMINNGSVQVNGRVVKPHLLVKEGDIITWSS” to “HMGQLVYPAGVYDVNKSYITDSNSAPYVLDKTDNNYYVLNTQMTWKGTEQDNKTPSQSYEESGGSVWLLFD”, the “soluble fraction (log2)” value falls from 0.0267 to -0.59.

“HMGQPAVSSRDVAEQFGKEHRNVIQSIKNLIAENSALTFMFIEDTYTAGTGKKYPMYYMNRDGFTLLA” and “HMGQPGNWTSYVFKNSDTEPAKPTSSGPIPSGWNDAPTGVGIWWMSKATIDASTGKAGSWSTPIRVTGED” are within 0.2 log units of each other in “soluble fraction (log2)” value: -0.15 for the first, 0.0155 for the second.

Going from “HMGQSKNERMLELVELLNKASRSYYQDAQEIMSNYEYDRLYDELQNLEKELGITLSNSPTVN” to “HMGQVSDETGLARVVDALLAAHPDEVAKYRAGKTSLLGWFMGQVMKETRGQANPDLARALVLERLE”, the “soluble fraction (log2)” value rises from -1.3 to -0.269.

First: HMGQYSTTLDKIENSLFGFTYSNEAENTRINRIENKVYGKTSTSQTSTRIAKLKKDLSVDEMG
Second: HMGREVVVPNLAGIEKEVALDLLKKNRLGGMITGTRFSSDFPAGQVIQQMPEAGSRVKVGKQVKLVLSEG
The “soluble fraction (log2)” value of the first is lower: -0.00491 for the first, 0.334 for the second.

First: HMGRGSEDEQMRGLAVILAEQKQIMQTLGVENEVVKPEQYINTLKRMAELNGFKDTDQFFSIPQ
Second: HMGRHSPLSIEQKEQLKTEIVALQQQRGGGRVTAVNIAELIQQKFNVVYNPNSLYKLLKQIGMSWV
The “soluble fraction (log2)” value of the first is lower: -0.587 for the first, -0.311 for the second.

“HMGRKEIIVPNLLGKYAIEAGTILKNAGLLEGQAREENSDTYPAGQIMDQFPKANTPANENDKVDYVVSI” and “HMGRLEVDLVVPYDKYEAMNVIRAEGRILKEDHQGDGAHLKIQINETALWKLKRMLGEGYGQ” are within 0.2 log units of each other in “soluble fraction (log2)” value: -0.202 for the first, -0.255 for the second.

“HMGRLPMNIVRAIVEHLDRHASYSEINRATGASKGFISKVAAAVEAASLTPEKFLLLNDEDIQNRITPGR” and “HMGRPTLEQLLDRAQAMGVPRERYAAYADRRWGRGWRVNPHGRGRAWDELDRYRNDPAGYLDKIEVELNQL” are within 0.2 log units of each other in “soluble fraction (log2)” value: -0.133 for the first, -0.0109 for the second.

Going from “HMGRQVTVPNVTGMLVEEARAAISEAELWVDSPRAVQGEVTRQEPARGERLSPGQEVRIYTES” to “HMGRRSKAMLSSALDAVPGLGEMRRKALISQFGSLKKLRGATPEEIAAVPGIGPKLAAAVHEAVSG”, the “soluble fraction (log2)” value rises from -0.568 to 0.131.

First: HMGRSTQVPGVEKMTYSQAVQLLHDHGFRVDIRDSLYRDDIKPGHVIEQFPKAKSIVKPGRKIFLYINAV
Second: HMGRTGTVVVSPSLNVRTGPWGEIIGSLYNGNKVEIIGSSGDWYQISFGGKTAYVHSDYVVDGG
The “soluble fraction (log2)” value of the first is higher: 0.105 for the first, -0.779 for the second.

First: HMGSDAFDISKLNLVGKTKESAESLLKENGFSVDTKEEASDTAAKGTVISYSPTKPKNGERVTLTVSSGK
Second: HMGSDQEAAMARQDRLSTLVDYVVERGSVHVDDIVADLGVSPATVRRDLDALAAQQLIIRTRGGATANHT
The “soluble fraction (log2)” value of the first is higher: 0.243 for the first, -0.552 for the second.

“HMGSGKGAAHTILGISADASDDEIKAAWRKLVQENHPDKLVSQGLPDEFVQAATDRLRLINTAYQSMLNRP” and “HMGSGLAAAEKIRKAHPEIKIVVATSLIDTQVLARAKAVGADSLWYKDGDEGTLMQVVRRTMAGDHIFP” are within 0.2 log units of each other in “soluble fraction (log2)” value: -0.328 for the first, -0.366 for the second.

Compared with “HMGSIGAMLSSPELYGKLATNPATRGFLSQPDFIAMLTDVQKNPDKFGSYMSDPRMMQVLSVALG”, “HMGSIRDIIVQYLSKFDDPQPAAKIVEYVQQYRDTTESSIRSSMGSGDQFVQFSGGLYGLKDKTYAAWYSI” is lower in “soluble fraction (log2)” value: -0.103 for the first, -0.383 for the second.

Going from “HMGSLKISNPVKDTLWIQGVDGLKSIEIYSSTGQLVKTILGNQGDVSSLPKGVYFLKINTPSESLTAKIIK” to “HMGSLPPPKDGTTIYVVKPGDSLWRISGKFFGNPLFWPRLWEINPNIDNPNKIYPGDVISLKP”, the “soluble fraction (log2)” value falls from at least 0.43 to 0.219.

Going from “HMGSLVKLQSAAELHQAGRSAEAVPILLEVLATNPRLVDGWEILANALEKLGRLDEALAALKKTVALSPPG” to “HMGSNENTIREYFDSLIASASKREIMDANPTMSQRTVERILQKLQAEGYVEKIGAARSTRYRRA”, the “soluble fraction (log2)” value rises from -1.23 to -0.0919.

Compared with “HMGSQLYTLEVEADEKISLIENNPLLIQKIYLKDNNLFSYKIASSSKTEIASIEKELEKNPSIKRLETA”, “HMGSQQIEEGMRRLVASGALRPGASVPSVRDLARDLQVNPATVVRAYQRLVDAGLLVVRRGEGTFVAE” is higher in “soluble fraction (log2)” value: -0.502 for the first, -0.103 for the second.

“HMGSSLLSPKEREVLQLLAGNLSNKQIALAMGVSDETIKWHLRNLFGKLNAGGRKHLIDRARMLGLLAAA” and “HMGSVHDAATDRIREMILGGQFEPGERLRQDDLATSLGVSTMPVREALRQLQAEGLVVFYPRKGAVVAR” are within 0.2 log units of each other in “soluble fraction (log2)” value: -0.153 for the first, -0.173 for the second.

First: HMGTAEDYLLPRRAEILSIIRDHEFANFDLIRRRFLAVNERTLRYDLKKLSDLGLIKKLGKTRGVYYRAAK
Second: HMGTAVKAPMPGTILKVNVTAGQSVKAGDIMFILEAMKMENEIVAPSDGTVSQVVAAKGSSVATDDVLAYL
The “soluble fraction (log2)” value of the first is higher: at least 0.43 for the first, -0.0993 for the second.

“HMGTDGLKDIVLEILKEHPNQLAELIDGKQKVLGFLVGQVMKKTNGAANPKEVNEIIQGEIKK” and “HMGTELSYSEFLNKVEAGEVTNVTIRGPEITFQTGNSSYTTYAPDDPKLIEHLTAKGVAIKAGP” are within 0.2 log units of each other in “soluble fraction (log2)” value: -0.433 for the first, -0.311 for the second.

Going from “HMGTGELLVHVIGAVHSPGVVRLPTGARVVDAIDAAGGAREDAQTEQLNLARLVDDGEQVRVPVVGESVD” to “HMGTGIKQVNVVSVIGQDEETAKTTLTNLGLKVNVTYATSTSDNGKVTKQSIDAGKTVDEGTSVTITVNKV”, the “soluble fraction (log2)” value falls from 0.00081 to -0.269.

Going from “HMGTHSAEQVRAAIRAIVAAEDAANPLSDARITELLAMRGIAAARRTVMKYREQLGIPSSAKRRR” to “HMGTHVVQEGEYLDLIIEKTIPGSPIRKDLLRKAFVKLNPSAFGGRGNPNYIFARKKLKVPSVEDLKAVIF”, the “soluble fraction (log2)” value falls from at least 0.43 to -0.36.

First: HMGTIEEYSKYLINQYFDSLKKPMDAMTTSEKIEIVKSLDKKGIFNLKGSVGELAKRFNTSEKTIYRYLSS
Second: HMGTKRWELPRRVQQMATQHGKSISTAAAEELVSRSGENTRMLDNDLVKLAQMVEAPQIELADVERWIVR
The “soluble fraction (log2)” value of the first is lower: 0.00746 for the first, 0.335 for the second.

Compared with “HMGTLPSLAPSGEKTVRLPNLAGWSLRETMEILQKGGLQLLPIGSGISFKQSPPPGTTLNEGDAVTVWF”, “HMGTNTTGWIKIADDWKYIDSNGEYTVNDWRQSADGGWYYLGYNGNMLKNQTTPDGYYVDAEGLWDGMSPA” is lower in “soluble fraction (log2)” value: 0.103 for the first, -2.31 for the second.

Compared with “HMGTPEQVVVSSVLKETNEIVLKWPADGFMAKYKMDNLNLNFEPVHGQGVMGYFIGSRLIKLELV”, “HMGTPSAEELAFSAQKGNAVMRIMEIREKYIENGGQISDEERNEIERLIAIYYPKASIFDYLPMMG” is lower in “soluble fraction (log2)” value: -0.33 for the first, -1.42 for the second.

Compared with “HMGTSFEDIDRAVKSVRKPETDEAEKLHAGKTFKDIAETELFQKLTESFAGISDRVNEVIDLYTARAAE”, “HMGTSSAEIAAELRAQIFAGELRPGEMLPSAREITGTWNVAIATASRVHALLRSEGLATPVPGVGTVVAT” is lower in “soluble fraction (log2)” value: 0.143 for the first, -0.17 for the second.

For “HMGTTAWISTKTANGSVNIRTGPGTGYGVIGWALNGDKLEVLSRGTSWHYVKLVKNGKIGYVSASYVSFTQ”, the “soluble fraction (log2)” value was -0.399.
